Laboratory results taken from patent US20110201118.

How the values were obtained:
[1] = system: TAL/GFP-L dTALEN (synthetic construct); test: cell_activity; settings: paired with TAL/GFP-R; 5/10 clones at 0.5 ug/well in HEK293T; 0/4 without TALEN
[2] = system: TAL/GFP-R dTALEN (synthetic construct); test: cell_activity; settings: paired with TAL/GFP-L; 5/10 clones at 0.5 ug/well in HEK293T; 0/4 without TALEN

Substance	activity (% clones with deletions) [1]	activity (% clones with deletions) [2]
eGFP target, TAL/GFP-L half-site	50	
eGFP target, TAL/GFP-R half-site		50
